Source: patent US20240101687A1

Assays:
[1] = target: human IGF1R extracellular domain, His-tagged (human) (UniProt P08069); assay: ELISA on ECD of IGF1R
[2] = target: human IGF1R on cells (human) (UniProt P08069); assay: FACS on MCF-7 cells (2nd Ab only: 2.92)
[3] = target: human IGF1R on cells (human) (UniProt P08069); assay: FACS on MCF-7 cells, 10 ug/mL (2nd Ab only: 2.86)

EC50 [1] [nM] | GEOmean [2] | GeoMean, Internalization at 37° C. [3] | Binder
0.107 | 3.88 | 7.23 | Hu3A9-C04 (bispecific antibody, part only; not given: Hu3A9 heavy and light chains, part only) heavy, part: GGGGSGGGGSGGGGSQSVLTQPPSASGTPGQRVTISCTGSSSNIGSNDVSWYQQLPGTAPKLLIYANSNRPSGVPDRFSGSKSGTSASLAISGLRSEDEADYYCGAWEQWLNGYVFGCGTKLTVLGGGGSGGGGSGGGGSGGGGSEVQLLESGGGLVQPGGSLRLSCAASGFTFSSYDMSWVRQAPGKLEWVSAISYDNGNTYYADSVKGRFTISRDNSKNTLYLQMNSLRAEDTAVYYCAKGVLTTLMNWFDYWGQGTLVTVSS
0.144 |  | 7.72 | Hu3A9-1564 (bispecific antibody, part only; not given: Hu3A9 heavy and light chains, part only) heavy, part: GGGGSGGGGSGGGGSQSVLTQPPSASGTPGQRVTISCTGSSSNIGSNDVSWYQQLPGTAPKLLIYANSNRPSGVPDRFSGSKSGTSASLAISGLRSEDEADYYCGAWDDSLNGYVFGCGTKLTVLGGGGSGGGGSGGGGSGGGGSEVQLLESGGGLVQPGGSLRLSCAASGFTFSSYDMSWVRQAPGKCLEWVSAISYDNGNTYYADSVKGRFTISRDNSKNTLYLQMNSLRAEDTAVYYCAKGVLTTLMNWFDYWGQGTLVTVSS
0.145 |  |  | Hu3A9-B01 (bispecific antibody, part only; not given: Hu3A9 heavy and light chains, part only) heavy, part: GGGGSGGGGSGGGGSQSVLTQPPSASGTPGQRVTISCTGSSSNIGSNDVSWYQQLPGTAPKLLIYANSNRPSGVSDRFSGSKSGTSASLAISGLRSEDEADYYCGAWDDSLNGYVFGGGTKLTVLGGGGSGGGGSGGGGSGGGGSEVQLLESGGGLVQPGGSLRLSCAASGFTFSSYDMSWVRQAPGKGLEWVSAISWDKAQPYYADSVKGRFTISRDNSKNTLYLQMNSLRAEDTAVYYCAKGVLTTLMNWFDYWGQGTLVTVSS
0.13 |  |  | Hu3A9-A02 (bispecific antibody, part only; not given: Hu3A9 heavy and light chains, part only) heavy, part: GGGGSGGGGSGGGGSQSVLTQPPSASGTPGQRVTISCTGSSSNIGSNDVSWYQQLPGTAPKLLIYANSNRPSGVSDRFSGSKSGTSASLAISGLRSEDEADYYCGAWDTTLNGYVFGGGTKLTVLGGGGSGGGGSGGGGSGGGGSEVQLLESGGGLVQPGGSLRLSCAASGFTFSSYDMSWVRQAPGKGLEWVSAISYDNGNTYYADSVKGRFTISRDNSKNTLYLQMNSLRAEDTAVYYCAKGVLTTLMNWFDYWGQGTLVTVSS
0.159 |  |  | Hu3A9-E09 (bispecific antibody, part only; not given: Hu3A9 heavy and light chains, part only) heavy, part: GGGGSGGGGSGGGGSQSVLTQPPSASGTPGQRVTISCTGSSSNIGSNDVSWYQQLPGTAPKLLIYANSNRPSGVSDRFSGSKSGTSASLAISGLRSEDEADYYCGAWDDSLNGYVFGGGTKLTVLGGGGSGGGGSGGGGSGGGGSEVQLLESGGGLVQPGGSLRLSCAASGFTFSSYDMSWVRQAPGKGLEWVSAISWGQGKTYYADSVKGRFTISRDNSKNTLYLQMNSLRAEDTAVYYCAKGVLTTLMNWFDYWGQGTLVTVSS
 |  | 19.8 | hu3A9 × 1564_F06 (bispecific antibody, part only; not given: hu3A9 heavy and light chains, part only) heavy, part: GGGGSGGGGSGGGGSQSVLTQPPSASGTPGQRVTISCTGSSSNIGSNDVSWYQQLPGTAPKLLIYANSNRPSGVPDRFSGSKSGTSASLAISGLRSEDEADYYCGTWAGSLNGYVFGCGTKLTVLGGGGSGGGGSGGGGSGGGGSEVQLLESGGGLVQPGGSLRLSCAASGFTFSSYDMSWVRQAPGKCLEWVSAISYDNGNTYYADSVKGRFTISRDNSKNTLYLQMNSLRAEDTAVYYCAKGVLTTLMNWFDYWGQGTLVTVSS
0.156 |  |  | Hu3A9-B10 (bispecific antibody, part only; not given: Hu3A9 heavy and light chains, part only) heavy, part: GGGGSGGGGSGGGGSQSVLTQPPSASGTPGQRVTISCTGSSSNIGSNDVSWYQQLPGTAPKLLIYANSNRPSGVSDRFSGSKSGTSASLAISGLRSEDEADYYCGSWDVSLNGYVFGGGTKLTVLGGGGSGGGGSGGGGSGGGGSEVQLLESGGGLVQPGGSLRLSCAASGFTFSSYDMSWVRQAPGKGLEWVSAISYDNGNTYYADSVKGRFTISRDNSKNTLYLQMNSLRAEDTAVYYCAKGVLTTLMNWFDYWGQGTLVTVSS
